According to patent US20220127365A1 (DREN BIO, published 2022):
Values belong to the binder of their own block, whether it stands above or below them.

What was measured:
human CD94 [1] = molecular target: T1, human CD94 (human, UniProt Q13241 1-179); assay: HLA-E tetramer blocking on healthy-donor PBMCs, flow cytometry; competitor HLA-E tetramer
T1 construct: whole, on cells; Endogenous CD94 on primary cells (healthy-donor PBMC NK cells, CLPD-NK and T-LGLL patient cells), where it pairs with NKG2A or NKG2C; also called KLRD1; Natural killer cells antigen CD94
T1 sequence (looked up): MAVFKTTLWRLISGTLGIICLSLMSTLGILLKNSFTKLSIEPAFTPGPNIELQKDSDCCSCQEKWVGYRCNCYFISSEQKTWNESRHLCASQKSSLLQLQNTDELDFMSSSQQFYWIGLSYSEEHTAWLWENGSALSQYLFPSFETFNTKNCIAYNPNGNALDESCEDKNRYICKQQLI
Procedure: (§1) Healthy donor PBMCs were seeded in 96-well plates at a density of 100,000 cells per well, incubated with human Fc block (Biolegend) and cell viability dye (Thermo Fisher) for 30 minutes on ice and protected from light. The cells were washed once with FACS buffer (PBS with 2% IgG low FBS). anti-CD94 antibodies at EC80 concentrations were incubated with cells for 30 minutes on ice and protected from light. After incubation with the anti-CD94 antibodies, the cells were washed and incubated with HLA-E tetramer PE (Creative Biolabs), anti-CD3 pacific blue-labelled, and anti-CD56 FITC-labelled antibodies (Biolegend) for 30 minutes on ice and protected from light. The cells then received a final wash in FACS buffer before quantification on the Cytoflex (Beckman Coulter). All data acquisition and fluorescence compensation were performed using CytoFlex (Beckman Coulter, Atlanta, Ga.). Data analysis was performed using FlowJo software. NK cells were identified through gating on lymphocytes on the forward and side scatter, followed by doublet and dead cell exclusion, and gated on the CD3−CD56+ population. HLA-E expression was then quantified on the CD3−CD56+NK cell population. Percent blocking was calculated as 100−((percent HLA-E positive for anti-CD94 antibody)/(percent HLA-E positive for isotype)*100).
Healthy donor PBMCs were incubated with anti-CD94 antibodies. PE labeled HLA-E tetramer was then incubated with cells and antibody mixture and detected by flow cytometry.
Percent blocking was calculated as 100−((percent HLA-E positive for anti-CD94 antibody)/(percent HLA-E positive for isotype)*100). If an antibody blocked more than 20% of HLA-E binding, it was considered a ligand-blocking antibody.

human CD94 [2] = molecular target: T1, human CD94; assay: flow cytometry titration (100 nM to 0.046 nM) on healthy-donor PBMCs, CD3-CD56bright NK cells; column 'Affinity on human NK cells (nM)'
cynomolgus CD94 [3] = molecular target: T2, cynomolgus CD94 (cynomolgus monkey); assay: flow cytometry on HEK293 cells overexpressing cynomolgus CD94; unconjugated antibody in a dilution series, Alexa Fluor 647 anti-human secondary antibody
T2 construct: whole, on cells; The construct expressed in HEK293 cells is not described further; also called cyno CD94; cynomolgus monkey CD94
Procedure: For human NK cell binding, PBMCs were freshly isolated from healthy donors and incubated with unconjugated antibodies in a dilution series from 100 nM to 0.046 nM. Secondary anti-human antibody labeled with Alexa Fluor 647 was used to detect binding on CD3−CD56bright NK cells. For cynomolgus CD94 binding, HEK293 cells overexpressing cynomolgus CD94 were incubated with unconjugated antibodies in a dilution series from 100 nM to 0.046 nM. Secondary anti-human antibody labeled with Alexa Fluor 647 was used to detect binding on the cells.

human CD94 [4] = molecular target: T1, human CD94; assay: table column 'HLA-E blocking'; flow cytometry on NK cells of healthy donor PBMCs, antibody at saturating concentration, blocked ligand PE labeled HLA-E tetramer; percent blocking = 100-((percent HLA-E positive with antibody)/(percent HLA-E positive with isotype)*100)
Procedure: FIGS. 4A & 4B show the results of HLA-E tetramer blocking assays performed with anti-CD94 and commercially available anti-CD94 antibodies using flow cytometry. Healthy donor PBMCs were incubated with anti-CD94 antibodies. PE labeled HLA-E tetramer was then incubated with the cell and antibody mixture, and detected using flow cytometry. For HP-3B1, 131412, 12K45, DX22, 1M4 and 1E4, 2.5 μl of HLA-E tetramer reagent was used, while 5 μl was used for 18H3 and HP-3D9. Saturating concentrations of each antibody was used in this assay. The percent blocking was calculated as 100−((percent HLA-E positive for anti-CD94 antibody)/(percent HLA-E positive for isotype)*100).
as §1

human CD94 [5] = molecular target: T1, human CD94; assay: competition assay, flow cytometry on NK cells of healthy donor PBMCs; 18H3-AF647 titrated, concurrently Mouse IgG1 control (or 1M4 at 8.5 µg/ml)
Procedure: (§2) FIGS. 5A-5B show the results of competition assays performed for 18H3 anti-CD94 antibody evaluation. For all competition assays, 18H3 was incubated with PBMCs at a concentration of 1.3 μg/ml. […] Commercially available anti-CD94 antibodies were titrated and incubated with PBMCs concurrently with 18H3. […] To test competition between 18H3 and 1M4/1E4, 1M4 and 1E4 were incubated with cells at concentrations of 8.5 μg/ml and 11 μg/ml, respectively. 18H3 was fluorescently tagged with AF647 and incubated with cells concurrently with […].
(§3) Healthy donor PBMCs were seeded in 96-well plates at a density of 100,000 cells per well, incubated with human Fc block (Biolegend) and cell viability dye (Thermo Fisher) for 30 minutes on ice and protected from light. The cells were washed once with FACS buffer (PBS with 2% IgG low FBS). Unconjugated anti-CD94 antibodies at EC80 concentrations, CD3 FITC and CD56 PE antibodies, and APC-labeled anti-CD94 antibodies were incubated with cells for 30 minutes on ice and protected from light. The cells then received a final wash in FACS buffer before quantification on the Cytoflex (Beckman Coulter). All data acquisition and fluorescence compensation were performed using CytoFlex (Beckman Coulter, Atlanta, Ga.). Data analysis was performed using FlowJo software. […] Anti-CD94 APC was then quantified on the CD3−CD56+NK cell population. […]

human CD94 [6] = molecular target: T1, human CD94; assay: flow cytometry titration (100 nM to 0.046 nM) on healthy-donor PBMCs, gated NK cells; EC50 from GraphPad Prism
Procedure: Peripheral blood monocuclear cells (PBMCs) of healthy donor HD-40 were used for antibody staining. 18H3 antibody was titrated from 100 nM to 0.046 nM in 1:3 dilutions and incubated with PBMCs. CD3 and CD56 antibodies were used to identify NK cells on the flow scatter. 18H3 antibody binding on […] and CD56 bright NK cells was used to assess affinity of 18H3. Titration curves and EC50 were generated using Graphpad Prism. […] Human IgG1 isotype control with secondary antibody (hIgG1) and goat (Fab)2 fragment anti-human Fcy-specific secondary antibody AF647 only (2ndary Ab) were used as controls.
Healthy donor PBMCs were seeded in 96 well plates at a density of 100,000 cells per well, incubated with human Fc block (Biolegend) and cell viability dye (Thermo Fisher) for 30 minutes on ice and protected from light. […] After incubation, the cells received a final wash in FACS buffer before quantification on the Cytoflex (Beckman Coulter). All data acquisition and fluorescence compensation were performed using CytoFlex (Beckman Coulter, Atlanta, Ga.). […] CD94 expression was then quantified on the CD3−CD56+NK cell population. […]
The affinity of the antibody clones was also assessed by flow cytometry analysis.

human CD94 [7] = molecular target: T1, human CD94; assay: competition assay, flow cytometry on NK cells of healthy donor PBMCs; 18H3-AF647 titrated in the presence of 1E4 at 11 µg/ml
Procedure: as §2, §3

cynomolgus CD94 [8] = molecular target: T2, cynomolgus CD94; assay: cell-based or functional assay
human CD94 [9] = molecular target: T1, human CD94; assay: cell-based or functional assay
human CD94 [10] = molecular target: T1, human CD94; assay: flow cytometry titration of Alexa Fluor 647 conjugate on T-LGLL patient cells (CD3+CD16+); T-LGLL cells
Procedure: (§4) The ATX-130 antibody was produced in Expi-CHO cells cultured in the presence of kifunensine, a potent inhibitor of the mannosidase I enzyme, which is used to produce ATX-130-KIF mimicking non-fucosylated antibody. PBMCs of healthy donors were used for antibody staining ATX-130 antibody was titrated from 50 nM to 0.02 nM. Secondary anti-human antibody labeled with Alexa Fluor 647 was used to detect binding on CD3−CD56 bright NK cells. ATX-130-KIF antibody conjugated with Alexa Fluor 647 was titrated from 50 nM to 0.02 nM. T-LGLL cells were identified using CD3+CD16+ gating, while CLPD-NK cells were identified using CD3−CD16+ gating strategy. Titration curves and EC50 were generated using Graphpad Prism. […] Fluorescently labeled human IgG1-KIF isotype-KIF antibody was used as control. Arrows indicate ATX-130 and Human IgG1-KIF data points.
(§5) The affinity of the antibody clones was assessed by flow cytometry analysis. ATX-130-KIF mimicking non-fucosylated antibody was produced by culturing Expi-CHO cells cultured in the presence of kifunensine, a potent inhibitor of the mannosidase I enzyme. […] Thus, ATX-130 and ATX-130-KIF have similar binding affinity on primary human NK cells, cynomolgus NK cells, CLPD-NK cells, and T-LGLL cells.

cynomolgus CD94 [11] = molecular target: T2, cynomolgus CD94; assay: flow cytometry titration of Alexa Fluor 647 conjugate (50 nM to 0.02 nM) on primary cynomolgus NK cells
Procedure: as §4, §5

human CD94 [12] = molecular target: T1, human CD94; assay: flow cytometry titration of Alexa Fluor 647 conjugate on CLPD-NK patient cells (CD3-CD16+); CLPD-NK cells
Procedure: as §4, §5

percent HLA-E blocking (human CD94 [1]): 11% | EC50 (human CD94 [2]): 4.63 nM | EC50 (read off the curve) (cynomolgus CD94 [3]): ~2 nM
B1: anti-CD94 antibody ATX-125 (antibody, human IgG1, V domains shown)
VH: QVQLQQSGPGLVKPSETLSLTCTVSGGSISSIIYYWGWIRQPPGKGLEWIGSIYYSGSTYYNPSLKSRVTISVDTSKNQFSLNLSSVTAADTAVYYCARLPLTGEFAFDIWGQGTMVTVSS
VL: EIVLTQSPATLSLSPGERATLSCRASQSVSTYLAWFQQKPGQAPRLLIYGASSRATGIPDRFSGSGSGTDFTLTISRLEPEDFAVYYCQQYGSSPITFGQGTRLEIK

HLA-E blocking (human CD94 [4]): 0%
B2: anti-CD94 antibody 1M4 (antibody, V domains shown)
VH: QLVESGGGLVQPGGSLRLACAASGFTFSNYAMNWVRQAPGKGLEWVSVISGSGDTTYCADSVKGRFTISRDNSKNTLHLQLNSLRAEDTAVYYCAKNCYGSGSYYNHFDYWGQGTLVTVSS
VL: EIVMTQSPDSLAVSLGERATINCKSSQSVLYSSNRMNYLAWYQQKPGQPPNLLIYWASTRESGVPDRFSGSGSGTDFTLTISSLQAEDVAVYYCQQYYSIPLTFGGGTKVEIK

EC50 (read off the curve) (human CD94 [5]): ~0.8 nM | EC50 (human CD94 [6]): 2.6 nM | HLA-E blocking (human CD94 [4]): 0% | EC50 (read off the curve) (human CD94 [7]): ~3 nM
B3: anti-CD94 antibody 18H3 (antibody, V domains shown)
VH: EVQLVQSGAEVKKPGESLKISCKGSGYRFTSYWIGWVRQMPGKGLEWMGIIYPGDSDTRYSPSFQGQVIISADKSITTAFLQWSSLKASDTAMYYCARPFDYGGSPGYFDYWGQGTLVTVSS
VL: DIQMTQSPSTLSASVGDRVTITCRASQSIRSWLAWYQQKPGKAPKLLIYKASSLESGVPSRFSGSGSGTEFTLTISSLQPDDFATYYCQQYNTFWTFGQGTKVEIK
notes: Human variable domains from ATX-Gx Alloy transgenic mice; Screened as hybridoma supernatant; also called human IgG1 18H3

IC50 of cynomolgus NK cell depletion, ADCC assay with cynomolgus PBMCs (cynomolgus CD94 [8]): 0.3 ng/mL | IC50 of CLPD-NK leukemic cell depletion, ADCC assay with patient PBMCs (human CD94 [9]): 0.6 ng/mL | IC50 of T-LGLL leukemic cell depletion, ADCC assay with patient PBMCs (human CD94 [9]): 0.2 ng/mL | IC50 of human NK cell depletion, ADCC assay with healthy donor PBMCs (human CD94 [9]): 0.8 ng/mL | EC50 (human CD94 [10]): 3 nM | EC50 (cynomolgus CD94 [11]): 1 nM | EC50 (human CD94 [12]): 1.4 nM
B4: ATX-130-KIF (antibody, human IgG1, V domains shown)
VH: EVQLLESGGGLVKPGGSLRLSCAASGFTFSSYSMNWVRQAPGKGLEWVSSISTSSNFIYYADSVKGRFTISRDNAKNSLYLQMNSLRAEDTAVYYCARDLGRYYYYMDVWGKGTTVTVSS
VL: DIVMTQSPSSLSASVGDRVTITCRASQSISSWLAWYQQKPGKAPKSLIYAASSLQSGVPSKFSGSGSGTDFTLTISSLQPEDVATYYCQKYNSAPFTFGPGTKVDIK
notes: also called KIF-treated ATX-130; ATX-130-KIF Alexa Fluor 647

HLA-E blocking (human CD94 [4]): 0%
B5: anti-CD94 antibody 1E4 (antibody, V domains shown)
VH: QVTLRESGPALVKPTQTLTLTCTFSGFSLSTSDLCVSWIRQPPGKALEWLALIDWNDDKYYSTSLQTRLTISKDTSKNQVVLTMTNMDPVDTATYYCARTIAAAGPYDAFDIWGQGTMVTVSS
VL: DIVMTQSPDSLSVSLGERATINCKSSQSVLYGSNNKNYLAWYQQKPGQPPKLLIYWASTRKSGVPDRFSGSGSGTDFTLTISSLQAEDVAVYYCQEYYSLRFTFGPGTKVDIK
notes: Hybridoma antibody from ATX-Gx Alloy transgenic mice; also called fucosylated 1E4

percent HLA-E blocking (human CD94 [1]): 0% | EC50 (human CD94 [2]): 2.52 nM | EC50 (read off the curve) (cynomolgus CD94 [3]): ~2 nM
B6: anti-CD94 antibody ATX-126 (antibody, human IgG1, V domains shown)
VH: QVQLQESGGGLVQPGGSLKLSCAASGFTFSSYSMNWVRQAPGKGLEWVSSISTSSNFIYYADSVKGRFTISRDNSKNTLYLQMNSLRAEDTAVYYCVRDMGPFYSFYYMDVWGNGTTVTVSS
VL: DIQVTQSPATLSLSPGERATLSCRASQSVSSSYLAWYQQKPGQAPRLLIYGASNRATGIPARFSGSGSGTDFTLTISSLQPEDFATYYCLQHNSYPPTFGGGTKVDIK
